Test results as given in patent US20240117049A1 (Hoffmann-La Roche, published 2024).

T1: human OX40 on cells (human, UniProt P43489 29-277)
T1 sequence: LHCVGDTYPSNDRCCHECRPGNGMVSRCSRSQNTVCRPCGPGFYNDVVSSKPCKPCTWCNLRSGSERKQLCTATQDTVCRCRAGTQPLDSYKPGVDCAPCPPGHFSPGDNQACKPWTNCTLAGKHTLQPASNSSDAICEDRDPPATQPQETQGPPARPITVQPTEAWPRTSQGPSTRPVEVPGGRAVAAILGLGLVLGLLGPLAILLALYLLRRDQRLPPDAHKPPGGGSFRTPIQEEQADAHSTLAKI

T2: biotinylated human OX40 (human, UniProt P43489 29-214, limits assumed, biotinylated)
T2 sequence: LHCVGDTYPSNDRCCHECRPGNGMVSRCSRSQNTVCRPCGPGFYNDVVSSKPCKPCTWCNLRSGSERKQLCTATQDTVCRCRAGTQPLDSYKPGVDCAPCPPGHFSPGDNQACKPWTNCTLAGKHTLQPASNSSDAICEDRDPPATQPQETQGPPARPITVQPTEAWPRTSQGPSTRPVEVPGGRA


Experiments:
human OX40 on cells [1] = molecular target: T1, human OX40 on cells; experiment: cell-based or functional assay
[2] = molecular target: T3, FcRn (biotinylated, coupled to streptavidin-sepharose); experiment: FcRn affinity chromatography, pH gradient, retention compared to standards
T3 construct: also called neonatal Fc receptor

human OX40 on cells [3] = molecular target: T1, human OX40 on cells; experiment: cell-based or functional assay; remark: listed apart in the source
[4] = molecular target: T4, human Fibroblast Activation Protein (FAP) expressed on cells (human, UniProt Q12884 1-760); experiment: flow cytometry, NIH/3T3-huFAP clone 19 cells
T4 construct: cell surface FAP on transfected HEK cells or NIH/3T3-huFAP clone 19 fibroblasts; also called huFAP; human FAP-transfected HEK cells

human OX40 on cells [5] = molecular target: T1, human OX40 on cells; experiment: flow cytometry, activated human CD4+ T cells
biotinylated human OX40 = molecular target: T2, biotinylated human OX40; experiment: SPR, stressed against unstressed sample, normalised to anti-hu IgG capture
[6] = molecular target: T5, biotinylated recombinant human FAP (human, UniProt Q12884 27-760, biotinylated); experiment: as above
T5 construct: the Biacore paragraphs only say biotinylated (recombinant) human FAP; also called biotinylated human FAP; recombinant huFAP

[7] = molecular target: T5, biotinylated recombinant human FAP; experiment: SPR (Biacore), biotinylated huFAP on CAP chip, Fab as analyte, 1:1 fit
[8] = molecular target: T5, biotinylated recombinant human FAP; experiment: SPR (Biacore)

AUC of CD25 upregulation compared to reference compound [%] (human OX40 on cells [1])	EC50 of NFκB activation, HeLa_hOx40_NFkB_Luc1, w/ hu FAP+ fibroblasts (human OX40 on cells [3])	Kd [8]	T ½ [8]	koff [8]	kon [8]	also measured	Binder
100%	0.31 nM	–	–	–	–	EC50 of CD25 upregulation on CD4+ T cells, suboptimal TCR stimulation of human PBMC with FAP+ fibroblasts (human OX40 on cells [1]): 0.02 nM; FcRn affinity (relative retention) [2]: -0.22; EC50 of NFκB activation, HeLa_hOx40_NFkB_Luc1, w/o crosslinking (human OX40 on cells [3]): 3.94 nM; EC50 [4]: 2.7 nM; EC50 (human OX40 on cells [5]): 0.69 nM; binding activity [%] after 2 weeks at pH 6.0/40°C (biotinylated human OX40): > 90%; binding activity [%] after 2 weeks at pH 7.4/37°C (biotinylated human OX40): > 90%; binding activity [%] after 2 weeks at pH 6.0/40°C [6]: > 90%; binding activity [%] after 2 weeks at pH 7.4/37°C [6]: > 90%	P1AE8875 OX40(MOXR0916) x FAP (1G1a) (3 + 1) C-terminal crossfab fusion (bispecific antibody, human IgG1, kappa, L234A L235A, also called MOX0916 3+1) heavy 1: not shown heavy 2: EVQLVQSGAEVKKPGASVKVSCKASGYTFTDSYMSWVRQAPGQGLEWIGDMYPDNGDSSYNQKFRERVTITRDTSTSTAYLELSSLRSEDTAVYYCVLAPRWYFSVWGQGTLVTVSSASTKGPSVFPLAPSSKSTSGGTAALGCLVEDYFPEPVTVSWNSGALTSGVHTFPAVLQSSGLYSLSSVVTVPSSSLGTQTYICNVNHKPSNTKVDEKVEPKSCGGGGSGGSGGEVQLVQSGAEVKKPGASVKVSCKASGYTFTDSYMSWVRQAPGQGLEWIGDMYPDNGDSSYNQKFRERVTITRDTSTSTAYLELSSLRSEDTAVYYCVLAPRWYFSVWGQGTLVTVSSASTKGPSVFPLAPSSKSTSGGTAALGCLVEDYFPEPVTVSWNSGALTSGVHTFPAVLQSSGLYSLSSVVTVPSSSLGTQTYICNVNHKPSNTKVDEKVEPKSCDKTHTCPPCPAPEAAGGPSVFLFPPKPKDTLMISRTPEVTCVVVDVSHEDPEVKFNWYVDGVEVHNAKTKPREEQYNSTYRVVSVLTVLHQDWLNGKEYKCKVSNKALGAPIEKTISKAKGQPREPQVCTLPPSRDELTKNQVSLSCAVKGFYPSDIAVEWESNGQPENNYKTTPPVLDSDGSFFLVSKLTVDKSRWQQGNVFSCSVMHEALHNHYTQKSLSLSPG light 1: not shown light 2: EIVLTQSPATLSLSPGERATLSCRASESVDNYGLSFINWFQQKPGQAPRLLIYGTSNRGSGIPARFSGSGSGTDFTLTISSLEPEDFAVYFCQQSNEVPYTFGGGTKVEIKSSASTKGPSVFPLAPSSKSTSGGTAALGCLVKDYFPEPVTVSWNSGALTSGVHTFPAVLQSSGLYSLSSVVTVPSSSLGTQTYICNVNHKPSNTKVDKKVEPKSC
106%	0.19 nM	–	–	–	–	EC50 of CD25 upregulation on CD4+ T cells, suboptimal TCR stimulation of human PBMC with FAP+ fibroblasts (human OX40 on cells [1]): 0.01 nM; FcRn affinity (relative retention) [2]: 0.15; EC50 [4]: 1.78 nM; EC50 (human OX40 on cells [5]): 0.9 nM; binding activity [%] after 2 weeks at pH 6.0/40°C (biotinylated human OX40): > 90%; binding activity [%] after 2 weeks at pH 7.4/37°C (biotinylated human OX40): > 90%; binding activity [%] after 2 weeks at pH 6.0/40°C [6]: > 90%; binding activity [%] after 2 weeks at pH 7.4/37°C [6]: > 90%	P1AE8872 OX40(MOXR0916) x FAP (1G1a) (2 + 1) C-terminal crossfab fusion (bispecific antibody, human IgG1, kappa, L234A L235A, also called MOX0916 2+1) heavy 1: not shown heavy 2: EVQLVQSGAEVKKPGASVKVSCKASGYTFTDSYMSWVRQAPGQGLEWIGDMYPDNGDSSYNQKFRERVTITRDTSTSTAYLELSSLRSEDTAVYYCVLAPRWYFSVWGQGTLVTVSSASTKGPSVFPLAPSSKSTSGGTAALGCLVEDYFPEPVTVSWNSGALTSGVHTFPAVLQSSGLYSLSSVVTVPSSSLGTQTYICNVNHKPSNTKVDEKVEPKSCDKTHTCPPCPAPEAAGGPSVFLFPPKPKDTLMISRTPEVTCVVVDVSHEDPEVKFNWYVDGVEVHNAKTKPREEQYNSTYRVVSVLTVLHQDWLNGKEYKCKVSNKALGAPIEKTISKAKGQPREPQVCTLPPSRDELTKNQVSLSCAVKGFYPSDIAVEWESNGQPENNYKTTPPVLDSDGSFFLVSKLTVDKSRWQQGNVFSCSVMHEALHNHYTQKSLSLSPG light 1: not shown light 2: EIVLTQSPATLSLSPGERATLSCRASESVDNYGLSFINWFQQKPGQAPRLLIYGTSNRGSGIPARFSGSGSGTDFTLTISSLEPEDFAVYFCQQSNEVPYTFGGGTKVEIKSSASTKGPSVFPLAPSSKSTSGGTAALGCLVKDYFPEPVTVSWNSGALTSGVHTFPAVLQSSGLYSLSSVVTVPSSSLGTQTYICNVNHKPSNTKVDKKVEPKSC
–	–	0.279 nM	0.917 h	0.000208 s⁻¹	747000 M⁻¹ s⁻¹	Kd [7]: 0.43 nM; koff [7]: 0.00078 s⁻¹; kon [7]: 1.82e+06 M⁻¹ s⁻¹	4B9_Fab (Fab, V domains shown, Fab; also called anti-FAP 4B9 Fab) VH: EVQLLESGGGLVQPGGSLRLSCAASGFTFSSYAMSWVRQAPGKGLEWVSAIIGSGASTYYADSVKGRFTISRDNSKNTLYLQMNSLRAEDTAVYYCAKGWFGGFNYWGQGTLVTVSS VL: EIVLTQSPGTLSLSPGERATLSCRASQSVTSSYLAWYQQKPGQAPRLLINVGSRRATGIPDRFSGSGSGTDFTLTISRLEPEDFAVYYCQQGIMLPPTFGQGTKVEIK
–	–	0.213 nM	1.8 h	0.000107 s⁻¹	502000 M⁻¹ s⁻¹	–	P1AE1702_Fab, humanized anti-FAP Fab VH2G2a/VL2G2a (Fab, V domains shown) VH: EVQLLESGGGLVQPGGSLRLSCAASGYTLTDYNMDWVRQAPGKGLEWVGDIYPNTGGTIYNQKFKGRFTISIDKSKNTAYLQMNSLRAEDTAVYYCTRFRGIHYAMDYWGQGTTVTVSS VL: DIQMTQSPSSLSASVGDRVTITCRASESVDNYGLSFINWFQQKPGQPPKLLIYGTSNRGSGVPSRFSGSGSGTDFTLTISSLQPEDFAMYFCQQSNEVPYTFGGGTKVEIK
–	–	0.114 nM	3.05 h	6.3e-05 s⁻¹	551000 M⁻¹ s⁻¹	–	P1AE1690_Fab, humanized anti-FAP Fab VH1G2a/VL1G1a (Fab, V domains shown) VH: QVQLVQSGAEVKKPGASVKVSCKASGYTLTDYNMDWVRQAPGKSLEWIGDIYPNTGGTIYNQKFKGRVTMTIDKSTSTVYMELSSLRSEDTAVYYCTRFRGIHYAMDYWGQGTTVTVSS VL: EIVLTQSPATLSLSPGERATLSCRASESVDNYGLSFINWFQQKPGQAPRLLIYGTSNRGSGIPARFSGSGSGTDFTLTISSLEPEDFAVYFCQQSNEVPYTFGGGTKVEIK
–	–	0.135 nM	2.68 h	7.18e-05 s⁻¹	530000 M⁻¹ s⁻¹	–	P1AE1693_Fab, humanized anti-FAP Fab VH1G2a/VL1G2a (Fab, V domains shown) VH: QVQLVQSGAEVKKPGASVKVSCKASGYTLTDYNMDWVRQAPGKSLEWIGDIYPNTGGTIYNQKFKGRVTMTIDKSTSTVYMELSSLRSEDTAVYYCTRFRGIHYAMDYWGQGTTVTVSS VL: EIVLTQSPATLSLSPGERATLSCRASESVDNYGLSFINWFQQKPGQPPRLLIYGTSNRGSGIPARFSGSGSGTDFTLTISSLEPEDFAVYFCQQSNEVPYTFGGGTKVEIK
–	–	0.095 nM	4.57 h	4.21e-05 s⁻¹	443000 M⁻¹ s⁻¹	–	P1AE1689_Fab, humanized anti-FAP Fab VH1G1a/VL1G1a (Fab, V domains shown, also called FAP antibody 1G1a; H212) VH: QVQLVQSGAEVKKPGASVKVSCKASGYTLTDYNMDWVRQAPGQGLEWIGDIYPNTGGTIYNQKFKGRVTMTIDTSTSTVYMELSSLRSEDTAVYYCTRFRGIHYAMDYWGQGTTVTVSS VL: EIVLTQSPATLSLSPGERATLSCRASESVDNYGLSFINWFQQKPGQAPRLLIYGTSNRGSGIPARFSGSGSGTDFTLTISSLEPEDFAVYFCQQSNEVPYTFGGGTKVEIK
13%	0.18 nM	–	–	–	–	EC50 of NFκB activation, HeLa_hOx40_NFkB_Luc1, w/o crosslinking (human OX40 on cells [3]): 0.23 nM	P1AD3690, untargeted tetravalent OX40 (49B4) antigen binding molecule (4+0) (antibody, human IgG1, kappa, L234A L235A) heavy: not shown light: DIQMTQSPSTLSASVGDRVTITCRASQSISSWLAWYQQKPGKAPKLLIYDASSLESGVPSRFSGSGSGTEFTLTISSLQPDDFATYYCQQYSSQPYTFGQGTKVEIKRTVAAPSVFIFPPSDEQLKSGTASVVCLLNNFYPREAKVQWKVDNALQSGNSQESVTEQDSKDSTYSLSSTLTLSKADYEKHKVYACEVTHQGLSSPVTKSFNRGEC
